Measurements reported in PMC8079451, “Phosphopeptide interactions of the Nbs1 N-terminal FHA-BRCT1/2 domains” (Scientific Reports, 2021).
Square brackets hold non-standard residues; d marks the D form. Primed or numbered codes have the meaning given here. Ends that are not written are not given here. FITC′ = fluorescein isothiocyanate label; pT = C[C@@H](OP(=O)(O)O)[C@H](N)C(=O)O

What was measured:
Assay in all cases: fluorescence polarisation; 100 nM FITC-labeled phosphopeptide with increasing hsNbs1(384); room temperature, 15 min incubation; 25 mM HEPES pH 7.4, 150 mM NaCl, 1 mM EDTA, 2 mM DTT, 0.05% Tween20, 0.1% BSA; one-site model
Details in all cases: both partners purified
hsNbs1(384) K160A = target: T1, hsNbs1(384) K160A (human, UniProt O60934 1-384, K160A)
T1 construct: source: E. coli BL21(DE3) pLacI, purified as the wild type
T1 sequence (looked up): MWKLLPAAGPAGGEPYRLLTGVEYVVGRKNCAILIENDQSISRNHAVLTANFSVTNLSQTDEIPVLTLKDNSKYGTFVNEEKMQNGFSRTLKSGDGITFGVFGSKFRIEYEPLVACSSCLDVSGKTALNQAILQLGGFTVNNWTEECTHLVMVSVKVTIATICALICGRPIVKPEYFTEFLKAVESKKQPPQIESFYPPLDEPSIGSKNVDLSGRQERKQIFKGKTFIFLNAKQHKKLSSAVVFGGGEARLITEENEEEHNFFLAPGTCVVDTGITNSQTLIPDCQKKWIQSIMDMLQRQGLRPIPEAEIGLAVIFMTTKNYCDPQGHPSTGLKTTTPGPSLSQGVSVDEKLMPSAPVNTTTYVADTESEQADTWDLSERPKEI

hsNbs1(384) S118G = target: T2, hsNbs1(384) S118G (human, UniProt O60934 1-384, S118G)
T2 construct: source: E. coli BL21(DE3) pLacI, purified as the wild type
T2 sequence (looked up): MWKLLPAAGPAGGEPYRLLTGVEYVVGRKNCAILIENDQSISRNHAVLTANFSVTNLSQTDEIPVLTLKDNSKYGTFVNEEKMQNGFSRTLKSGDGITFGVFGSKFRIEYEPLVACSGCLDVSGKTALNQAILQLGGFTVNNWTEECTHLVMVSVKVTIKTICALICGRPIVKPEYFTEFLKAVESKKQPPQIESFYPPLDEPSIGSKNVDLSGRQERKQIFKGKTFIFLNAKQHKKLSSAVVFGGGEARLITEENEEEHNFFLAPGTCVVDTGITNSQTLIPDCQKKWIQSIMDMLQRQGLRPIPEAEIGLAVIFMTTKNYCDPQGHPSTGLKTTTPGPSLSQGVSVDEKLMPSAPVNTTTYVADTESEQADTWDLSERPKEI

hsNbs1(384) R28A = target: T3, hsNbs1(384) R28A (human, UniProt O60934 1-384, R28A)
T3 construct: source: E. coli BL21(DE3) pLacI, purified as the wild type
T3 sequence (looked up): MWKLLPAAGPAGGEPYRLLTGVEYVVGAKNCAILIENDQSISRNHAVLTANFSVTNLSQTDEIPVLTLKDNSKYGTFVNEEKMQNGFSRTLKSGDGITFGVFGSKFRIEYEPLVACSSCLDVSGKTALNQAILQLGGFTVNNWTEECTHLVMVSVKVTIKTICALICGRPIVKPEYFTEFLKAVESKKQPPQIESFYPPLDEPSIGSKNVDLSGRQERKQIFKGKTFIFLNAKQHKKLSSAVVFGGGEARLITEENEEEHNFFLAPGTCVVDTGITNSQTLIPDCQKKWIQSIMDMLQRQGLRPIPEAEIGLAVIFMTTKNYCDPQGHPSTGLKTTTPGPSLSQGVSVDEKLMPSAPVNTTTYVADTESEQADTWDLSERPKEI

[1] = target: T4, hsNbs1(384), the N-terminal 384 residues of homo sapiens Nbs1 containing the FHA-BRCT1-BRCT2 domains (human, UniProt O60934 1-384)
T4 construct: gene optimised for E. coli, cloned into pET30a (NdeI/HindIII); also called wt; source: E. coli BL21(DE3) pLacI, purified (Ni-NTA, HiTrap Q, Superdex 75)
T4 sequence (looked up): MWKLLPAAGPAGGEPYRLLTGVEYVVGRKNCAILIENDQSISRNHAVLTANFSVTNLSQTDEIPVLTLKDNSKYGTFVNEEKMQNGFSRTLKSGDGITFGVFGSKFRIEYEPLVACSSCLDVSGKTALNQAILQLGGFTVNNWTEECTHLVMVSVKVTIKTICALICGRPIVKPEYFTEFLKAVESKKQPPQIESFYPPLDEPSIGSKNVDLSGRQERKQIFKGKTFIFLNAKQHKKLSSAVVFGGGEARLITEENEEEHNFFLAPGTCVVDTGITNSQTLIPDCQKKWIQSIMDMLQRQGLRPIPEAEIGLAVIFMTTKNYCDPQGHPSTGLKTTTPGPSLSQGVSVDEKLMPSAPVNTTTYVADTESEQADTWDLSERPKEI

hsNbs1(384) K73A = target: T5, hsNbs1(384) K73A (human, UniProt O60934 1-384, K73A)
T5 construct: source: E. coli BL21(DE3) pLacI, purified as the wild type
T5 sequence (looked up): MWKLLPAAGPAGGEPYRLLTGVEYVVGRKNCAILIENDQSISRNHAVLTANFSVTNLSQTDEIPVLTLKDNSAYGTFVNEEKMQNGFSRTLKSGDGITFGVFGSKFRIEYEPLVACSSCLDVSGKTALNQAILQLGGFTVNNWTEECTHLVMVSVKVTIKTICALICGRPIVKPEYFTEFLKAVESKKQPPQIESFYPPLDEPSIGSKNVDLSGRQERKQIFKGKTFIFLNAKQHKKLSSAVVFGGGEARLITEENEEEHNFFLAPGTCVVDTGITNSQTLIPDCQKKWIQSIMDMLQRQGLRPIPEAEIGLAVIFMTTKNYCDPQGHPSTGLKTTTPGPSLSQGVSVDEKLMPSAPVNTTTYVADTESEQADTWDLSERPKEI

Kd (hsNbs1(384) K160A): 133 µM | Kd (hsNbs1(384) S118G): 149 µM | Kd (hsNbs1(384) R28A): 35.9 µM | Kd [1]: 20 µM | Kd (hsNbs1(384) K73A): 32.9 µM
Binder: {FITC′}-GGRYIPPN[pT]PENFWEVGFPEEQ [hsCtIP phosphopeptide R841YIPPNpTPENFWEVGFPEEQ860 with N-terminal FITC-Gly-Gly]
